The values below come from the supplement of paper PMC7125110.

B1: glmS ribozyme (parent)
chain: AUAAAAGCGCCAGAACUACAGAAAUGUAGUUGACGAGGAGGAGGUUUAUCGAAUUUUCGGCGGAUGCCUCCAAA

What all share (settings): with glucosamine-6-phosphate
The variants in data set [1] derive from B1. The data set is described as follows: kcat; higher = faster cleavage; RNA array. The gist of the method: (§1)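 E. coli RNA polymerase transcribed barcoded ribozyme variants in situ on sequenced MiSeq chips, which were tracked via a hybridised Cy3 probe at 37 °C. Tiles were imaged over ~14 h after glucosamine-6-phosphate (40 μM to 10 mM) in HEPES/KCl/Mg(OAc)2 buffer was flowed in. Normalised per-tile medians were fit to one- or two-exponential decays for kobs, and kcat and KM came from weighted Michaelis–Menten fits.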

In data set [2] the parent is B1. The data set is described as follows: self-cleavage kobs at 40 uM GlcN6P; higher = faster cleavage; RNA array. The gist of the method: as §1
In data set [3] the parent is B1. The data set is described as follows: self-cleavage kobs at 160 uM GlcN6P; higher = faster cleavage; RNA array. The method in brief: as §1
The variants in data set [4] derive from B1. The data set is described as follows: KM; higher = weaker cofactor use; RNA array. The method in brief:
as §1

The variants in data set [5] derive from B1. The data set is described as follows: self-cleavage kobs at 2500 uM GlcN6P; higher = faster cleavage; RNA array. The gist of the method:
as §1

Variants of B1 are the subject of data set [6]. The data set is described as follows: self-cleavage kobs at 10000 uM GlcN6P; higher = faster cleavage; RNA array. The gist of the method:
as §1

The variants in data set [7] derive from B1. The experiment in a line: self-cleavage kobs at 640 uM GlcN6P; higher = faster cleavage; RNA array. The method in brief:
as §1

± gives the standard error. For some of these results: This sample holds only a part of the variants without activity. Some results are limits rather than exact numbers.

By kcat is commonly meant the number of substrate molecules converted per active site and unit of time at saturation. On to A33C A48U, for which, in the data set with glucosamine-6-phosphate [1], the kcat was below 1e-05 s⁻¹. Moreover, the “self-cleavage kobs at 40 uM GlcN6P” value with glucosamine-6-phosphate [2] is below 1e-05 s⁻¹. Moreover, the “self-cleavage kobs at 160 uM GlcN6P” value with glucosamine-6-phosphate [3] is below 1e-05 s⁻¹.

In general, KM refers to the substrate concentration at which the rate is half of its maximum. On to U30A U65C, for which the kcat in the data set with glucosamine-6-phosphate [1] was found to be 0.000105 ± 8e-06 s⁻¹. Further, in the data set with glucosamine-6-phosphate [4], the KM was 2860 ± 590 µM. Also, in the data set with glucosamine-6-phosphate [5], the “self-cleavage kobs at 2500 uM GlcN6P” value is 4.68e-05 ± 1.5e-05 s⁻¹. Besides, the “self-cleavage kobs at 10000 uM GlcN6P” value with glucosamine-6-phosphate [6] was 8.23e-05 ± 1.6e-05 s⁻¹.

Consider A6U A23C U30G, for which, in the data set with glucosamine-6-phosphate [1], the kcat was determined as 5.38e-05 ± 1.9e-06 s⁻¹. Besides, in the data set with glucosamine-6-phosphate [4], the KM is 2780 ± 300 µM. Also, the “self-cleavage kobs at 10000 uM GlcN6P” value with glucosamine-6-phosphate [6] was 4.19e-05 ± 1.6e-05 s⁻¹.

Consider G59C C67A, for which the kcat with glucosamine-6-phosphate [1] is below 1e-05 s⁻¹. For the same variant, the “self-cleavage kobs at 40 uM GlcN6P” value with glucosamine-6-phosphate [2] is below 1e-05 s⁻¹. In addition, the “self-cleavage kobs at 10000 uM GlcN6P” value with glucosamine-6-phosphate [6] was below 1e-05 s⁻¹.

As to C19A, in the data set with glucosamine-6-phosphate [1], the kcat turned out to be 0.0165 ± 0.0045 s⁻¹. Further, the KM with glucosamine-6-phosphate [4] is 610 ± 220 µM. The “self-cleavage kobs at 40 uM GlcN6P” value with glucosamine-6-phosphate [2] is 0.00101 ± 8.1e-05 s⁻¹. For the same variant, the “self-cleavage kobs at 160 uM GlcN6P” value in the data set with glucosamine-6-phosphate [3] was determined as 0.00456 ± 0.00078 s⁻¹. The “self-cleavage kobs at 640 uM GlcN6P” value with glucosamine-6-phosphate [7] is 0.00758 ± 0.00099 s⁻¹. The “self-cleavage kobs at 2500 uM GlcN6P” value with glucosamine-6-phosphate [5] amounted to 0.011 ± 0.0021 s⁻¹. For the same variant, the “self-cleavage kobs at 10000 uM GlcN6P” value in the data set with glucosamine-6-phosphate [6] worked out at 0.0275 ± 0.0046 s⁻¹.

Regarding A42G G66A U69A, the kcat with glucosamine-6-phosphate [1] came to 0.0145 ± 0.0037 s⁻¹. Besides, in the data set with glucosamine-6-phosphate [4], the KM stood at 1590 ± 490 µM. Moreover, in the data set with glucosamine-6-phosphate [2], the “self-cleavage kobs at 40 uM GlcN6P” value turned out to be 0.000356 ± 0.0001 s⁻¹. Also, the “self-cleavage kobs at 10000 uM GlcN6P” value in the data set with glucosamine-6-phosphate [6] came to 0.0125 ± 0.0052 s⁻¹.

In the case of G13A A14G, the kcat in the data set with glucosamine-6-phosphate [1] stood at 0.00208 ± 0.00043 s⁻¹. The KM in the data set with glucosamine-6-phosphate [4] came out at 3430 ± 1000 µM. Further, the “self-cleavage kobs at 40 uM GlcN6P” value in the data set with glucosamine-6-phosphate [2] amounted to 3.73e-05 ± 1.1e-05 s⁻¹. Besides, the “self-cleavage kobs at 160 uM GlcN6P” value with glucosamine-6-phosphate [3] stood at 7.81e-05 ± 1.4e-05 s⁻¹. Moreover, the “self-cleavage kobs at 640 uM GlcN6P” value in the data set with glucosamine-6-phosphate [7] amounted to 0.000393 ± 6.9e-05 s⁻¹. Moreover, in the data set with glucosamine-6-phosphate [5], the “self-cleavage kobs at 2500 uM GlcN6P” value worked out at 0.000888 ± 0.00012 s⁻¹. Moreover, in the data set with glucosamine-6-phosphate [6], the “self-cleavage kobs at 10000 uM GlcN6P” value came to 0.00151 ± 0.00023 s⁻¹.

G32A A42G A64G: in the data set with glucosamine-6-phosphate [1], the kcat was 0.00178 ± 0.00063 s⁻¹. For the same variant, the “self-cleavage kobs at 40 uM GlcN6P” value in the data set with glucosamine-6-phosphate [2] was 3.12e-05 ± 1.5e-05 s⁻¹. For the same variant, in the data set with glucosamine-6-phosphate [7], the “self-cleavage kobs at 640 uM GlcN6P” value is 0.000716 ± 0.00024 s⁻¹. In the data set with glucosamine-6-phosphate [6], the “self-cleavage kobs at 10000 uM GlcN6P” value turned out to be 0.0016 ± 0.00039 s⁻¹.

For U31A G59A, the kcat with glucosamine-6-phosphate [1] was 0.000128 ± 1.5e-05 s⁻¹. The KM with glucosamine-6-phosphate [4] was 2710 ± 740 µM. In addition, the “self-cleavage kobs at 640 uM GlcN6P” value with glucosamine-6-phosphate [7] was 2.94e-05 ± 1.4e-05 s⁻¹. Also, the “self-cleavage kobs at 2500 uM GlcN6P” value with glucosamine-6-phosphate [5] was 5.49e-05 ± 1.7e-05 s⁻¹. Moreover, in the data set with glucosamine-6-phosphate [6], the “self-cleavage kobs at 10000 uM GlcN6P” value is 0.000104 ± 2.3e-05 s⁻¹.

For G29A G59U, the kcat with glucosamine-6-phosphate [1] came to 1.01e-05 ± 3.5e-06 s⁻¹. In the data set with glucosamine-6-phosphate [7], the “self-cleavage kobs at 640 uM GlcN6P” value was below 1e-05 s⁻¹.

In the case of A53G G59U, the kcat with glucosamine-6-phosphate [1] was 2.73e-05 ± 4.3e-06 s⁻¹. Further, the “self-cleavage kobs at 2500 uM GlcN6P” value with glucosamine-6-phosphate [5] was 2.98e-05 ± 1.2e-05 s⁻¹. Also, the “self-cleavage kobs at 10000 uM GlcN6P” value with glucosamine-6-phosphate [6] amounted to 2.45e-05 ± 7.8e-06 s⁻¹.

Take G38U G51A: the kcat in the data set with glucosamine-6-phosphate [1] is below 1e-05 s⁻¹. Also, the “self-cleavage kobs at 2500 uM GlcN6P” value in the data set with glucosamine-6-phosphate [5] was below 1e-05 s⁻¹.

With A12C A52U, the kcat in the data set with glucosamine-6-phosphate [1] turned out to be 0.000397 ± 5.1e-05 s⁻¹. For the same variant, the KM in the data set with glucosamine-6-phosphate [4] came to 2490 ± 570 µM. In addition, the “self-cleavage kobs at 640 uM GlcN6P” value with glucosamine-6-phosphate [7] is 8.66e-05 ± 8.4e-06 s⁻¹. In addition, the “self-cleavage kobs at 2500 uM GlcN6P” value with glucosamine-6-phosphate [5] stood at 0.000188 ± 1.7e-05 s⁻¹. Besides, the “self-cleavage kobs at 10000 uM GlcN6P” value in the data set with glucosamine-6-phosphate [6] was determined as 0.000329 ± 3.4e-05 s⁻¹.

In the case of C16G U65A, the kcat in the data set with glucosamine-6-phosphate [1] turned out to be 0.000589 ± 6.3e-05 s⁻¹. Moreover, in the data set with glucosamine-6-phosphate [4], the KM was 3010 ± 580 µM. In addition, the “self-cleavage kobs at 640 uM GlcN6P” value with glucosamine-6-phosphate [7] was 0.000107 ± 1.4e-05 s⁻¹. In addition, in the data set with glucosamine-6-phosphate [5], the “self-cleavage kobs at 2500 uM GlcN6P” value was 0.00027 ± 6.5e-05 s⁻¹. Moreover, the “self-cleavage kobs at 10000 uM GlcN6P” value with glucosamine-6-phosphate [6] came to 0.00045 ± 4.9e-05 s⁻¹.

For the variant G41A U47C, the kcat in the data set with glucosamine-6-phosphate [1] was found to be 7.04e-05 ± 3.2e-07 s⁻¹. Further, the KM with glucosamine-6-phosphate [4] was found to be 1800 ± 30 µM. Besides, in the data set with glucosamine-6-phosphate [5], the “self-cleavage kobs at 2500 uM GlcN6P” value stood at 4.08e-05 ± 1e-05 s⁻¹. In the data set with glucosamine-6-phosphate [6], the “self-cleavage kobs at 10000 uM GlcN6P” value is 5.98e-05 ± 8.4e-06 s⁻¹.

C11U G32U: the kcat with glucosamine-6-phosphate [1] is 0.000176 ± 8e-05 s⁻¹. Moreover, the “self-cleavage kobs at 10000 uM GlcN6P” value with glucosamine-6-phosphate [6] was found to be 3.94e-05 ± 5.4e-06 s⁻¹.

With G29C U45G, the kcat in the data set with glucosamine-6-phosphate [1] stood at 0.000453 ± 2e-05 s⁻¹. Also, in the data set with glucosamine-6-phosphate [4], the KM worked out at 4250 ± 400 µM. In addition, the “self-cleavage kobs at 640 uM GlcN6P” value in the data set with glucosamine-6-phosphate [7] was 6.1e-05 ± 1.6e-05 s⁻¹. The “self-cleavage kobs at 2500 uM GlcN6P” value with glucosamine-6-phosphate [5] amounted to 0.000159 ± 3.6e-05 s⁻¹. The “self-cleavage kobs at 10000 uM GlcN6P” value with glucosamine-6-phosphate [6] was 0.000319 ± 3.3e-05 s⁻¹.

On to A39U G59A, for which the kcat with glucosamine-6-phosphate [1] is 2.27e-05 ± 2.6e-06 s⁻¹.

In the case of C61G C67G, the kcat in the data set with glucosamine-6-phosphate [1] was 1.22e-05 ± 1.5e-06 s⁻¹.
